# Target: MAP1B light chain 1, C-terminal myc-tag, expressed in COS7 cells (UniProt P15205)
# UniProt P15205, sequence (P15205 2210-2459): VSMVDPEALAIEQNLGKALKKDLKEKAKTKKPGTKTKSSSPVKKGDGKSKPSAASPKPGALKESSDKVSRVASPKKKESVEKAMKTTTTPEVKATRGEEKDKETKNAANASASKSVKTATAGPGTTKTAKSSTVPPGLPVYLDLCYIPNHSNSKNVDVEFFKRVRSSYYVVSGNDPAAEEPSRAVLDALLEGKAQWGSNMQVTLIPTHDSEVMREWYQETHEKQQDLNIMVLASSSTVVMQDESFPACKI
substance,measurement,value
"N-terminal truncated Tiam1 (C1199), C-terminal HA-tag (domain or fragment)","Rac1-GTP pulled down by GST-PAK1 CRIB domain from lysates of COS7 cells co-expressing Tiam1 (C1199 HA) and myc-tagged LC1, relative to total Rac1",2 fold

# From PMC3531375
